Reference: the DeepSol protein solubility set

Assay: soluble on expression in E. coli; label from the status in PepcDB or PDB records

| Sequence | soluble on expression in E. coli |
| --- | --- |
| MANAYKQAGVDIEAGYEAVSRMKKHVQTTMRKEVLGGLGGFGGMFDLSKFALEEPVLVSGTDGVGTKLMLAFMADKHDTIGIDAVAMCVNDIVVQGAEPLFFLDYIACGKAEPSKIENIVKGISEGCRQAGCALIGGETAEMPGMYSTEEYDLAGFTVGIVDKKKIVTGEKIEAGHVLIGLASSGIHSNGYSLVRKVLLEDGELSLDRIYGRLELPLGEELLKPTKIYVKPILELLKNHEVYGMAHITGGGFIENIPRMLPEGIGAEIELGSWKIQPIFSLLQEVGKLEEKEMFNIFNMGIGMVVAVKEEDAKDIVRLLEEQGETARIIGRTVQGAGVTFNGGKAL | soluble |
| MANDIDRAGVAKAYARWAPIYDLVFGKVFDSGRQSTIAVADAIGGRVLDVGVGTGLSLSDYSKTTRLCGVDISEPMLRKAHERVRTLNLSNVDVLAVMDAKNLAFPANYFDAVVAQYVITAVPDPEATLDDFIRVLKPGGELILVNHIGAESGPRKLFELAFSPIARRLGWRPEFPWQRLVNWAARHRGVELAERRPMPPMGHFSLIRYRKLLEHHHHHH | not soluble |
| MANIYLNIEADSAQELKEILSQLATDNVVEVTQSLNTADKKATEEVEKAAKKEPAKKKKATAKKKEEVSTASTSDTEPSKTGEKVAPTDSETEEVSATADLHLGATKADVQEAMRKAMDKGKRPMIKTCFSRYNAEKLSDLKEEHYGKFITDLETLVGE | not soluble |
| MANKLTVLASVVAASSAMLSLSASAAESTLDKVLSQGFITCGVSTGLPGFSNPNAKGEWEGIDVEYCQAMAAAVLGDKTKVKFVPLTAKERFTALQSGEIDVLSRNTTWTLQRDSALGLNFVGVNYYDGQGFMVKKDLGVKSAKELNGASVCVQSGTTTELNLADYFRNSGMTYKPVVFDTAAQTSKGFDAGRCDVLTTDQSGLYALRLNLEKPDSAVVLPEIISKEPLGPVVRQDDDKWFNVAKWVLYAMVNAEEYGITSKNVDEMMKSDNPEVKRILGLDGPKGTGLGIRDDWSYQIVKQVGNYGESFDRTVGSGSPLKIDRGVNALWNAGGFMYAPPIR | not soluble |
| MANVLCNRARLVSYLPGFCSLVKRVVNPKAFSTAGSSGSDESHVAAAPPDICSRTVWPDETMGPFGPQDQRFQLPGNIGFDCHLNGTASQKKSLVHKTLPDVLAEPLSSERHEFVMAQYVNEFQGNDAPVEQEINSAETYFESARVECAIQTCPELLRKDFESLFPEVANGQTNDSDWLEHHHHHH | soluble |
| MAPDVFTVVAEPQRRRILERLRAGHASVGELVDQLALPQPTVSKHLRVLRQAGFVTCRTAAQQRIYSLHREPFDEFDAWLQPYRRLWANHLDALGRHLESKETPS | not soluble |
| MAPEDGSLDRWQWYPKEKGEYSALYPRSWYEYKDVFKSELICEQFSPVWGGNYQESSYPLAVFDWTVHNPTDKPITLSIMLTWQNSVGWFTNAIKSPTVKLRDDGSPEYEYQPRWGDSTGNFNQWIQDGFRVGCLFNRVQPHEALREGEGQMCIASVSNPSVEVFYHNRWNPSGDGADVWDWFAGNGSLPDIQDETAAEPGEQIAGAICLRFTVRPGKTKKIPFLLAWDLPITEFAQGVTYYRRYTDFYGRNGKNVWSMIRTALKHSDTWRKKIEAWQAPILENPRLPDWLKMSLFNELYLLTQGGTLWTAATENDPVGQFGVCECMDYRWYESLDVRLYGSFGLLMHWPKLEQAVMLAFARAIPTEDPKERVIGYNLSLAPRKVKNATPHDLGAPNEHPWERSNYTAYQDCNLWKDLGSDFVLLVYRDFLLLPDADGEFLGECWPSIVAALDYLKGFDLDNDGIPENSGAPDQTFDDWRLQGISAYCGGLWIAALEAALVMGQYLLENPPQQTDLDAMEIQTAIARYETWLAQARSLYQDTLWNGEYYNLDSQSGSKVVMADQLCGQFYARLLNLPDVVEHHYAEKALAKVYDTCFLKFAHGELGAANGLLPDGSPQNPNDTHPLEVWTGINFGLAAFLIQMGMKEEALKMTETVVNQVYNNGLQFRTPEAITAVGTFRASHYLRAMAIWAVYGLLEGFSNLPIAPADDEVPTSDFYLEHHHHHH | not soluble |
| MAPNASCLCVHVRSEEWDLMTFDANPYDSVKKIKEHVRSKTKVPVQDQVLLLGSKILKPRRSLSSYGIDKEKTIHLTLKVVKPSDEELPLFLVESGDEAKRHLLQVRRSSSVAQVKAMIETKTGIIPETQIVTCNGKRLEDGKMMADYGIRKGNLLFLACYCIGG | soluble |
| MAPPSDSDPREPSPPLFQGRGLTKRFGSFVANQAIDLDIAGGEVHALLGENGAGKSTLVKLITGLLQPDDGRMIWRGTPISFAGPAEARACGIAAVSQHFALFDNLTVVENVALGLDRRISVGRLATELEQISQRYGLPLDPKREVWRLSVGERQRIEIVRALLQNPQLLILDEPTAVLTPAEADRLFDVLQRLRADGRALLYISHKLDEVKRLASVATILRAGRVVGSCDPRQESAASMARMMVGSDVTAPKQSSHSIGGPLLSVSGLTQRPDDPHGVTLRDIALEVRSGEIVGIAGVAGNGQDELFAALSGETPIAQSDVIHIAGEAAGSLSINQRRRLGAAFVPEQRLGHATVPTMSLSDNALLTGHATGALVKFGLVNRGAALALVDRVSEAFDVRKASRDPEAARLSGGNLQKFIVGREILRQPRLLIVDQPSWGLDAGAASAIRQALLDLAASGAAVLVISQDLDELIEIADRIAVMFHGRLSPPRPVSEIGRDQLGLLMGGSGWPAEVRDVAGALEHHHHHH | not soluble |
| MAPQSNNSTTFVSKTQHYLKVKKPLLERQRRARMNKCLDTLKTLVAEFQGDDAILRMDKAEMLEAALVFMRKQVVKQQAPVSPLPMDSFKNGYMNAVSEISRVMACTPAMSVDVGKTVMTHLGVEFQRMLQADQVQTSVTTSTPRPLSPASSGYHSDNEDSQSAASPKPVEETMWRPWLEHHHHHH | not soluble |
| MAPSSRWDAMGPKNSYRSVHGRIVPELLESSVARVRPLQYVQRQPSQASARSGANPTHRPSAEVRPVIRTGEMTHSSVIPPLAPGVRRVSLGYESSPSGSLPPLFNQESPWRRQDSYSPQNPAVSHKASLNSTILQGPADAGVVGGQSWNRAWEPARGAASWDTWRNKAVVPPRRSGEPMVSMQAAEEIRILAVITIQAGVRGYLARRRIRLWHRGAMVIQATWRGYRVRRNLAHLCRATTTIQSAWRGYSTRRDQARHWQMLHPVTWVELGSRAGVMSDRSWFQDGRARTVSDHRCFQSCQAHACSVCHSLSSRIGSPPSVVMLVGSSPRTCHTCGRTQPTRVVQGMGQGTEGPGAVSWASAYQLAALSPRQPHRQDKAATAIQSAWRGFKIRQQMRQQQMAAKIVQATWRGHHTRSCLKNTEALLGPADPSASSRHMHWPGI | not soluble |
| MAPTNLTKKPSQYKQSSRKGKKAWRKNIDLSDVEQYMEKKIDHEITHGTSDITSLQNDALFHVDVEGDEILKNKLIKRKQIKKVLKSKEILDAVKTNSKIAALNHHKNSSGNPNKIQGVSKHELKKLMALAGRVHGESKIKNRVAKDGLVKTTAGDLWGEESNSKKQKVKLPSGIKLDVEKKDQIPEELLKKSTTSWSTASVRPSTLDIEPIAVKEFTEIPHAGKSYNPNNKAWSELINKEYKEEKAREDERIALEKYKERIRHLMETLDDNEEEESSSNEEEEEEEEENENENESTQCSGSDKEIKLSINKPVKNKKKTKYQRNKAKRHEEKVKLQQELKELRQRVKDLEEVINSEETEILSAIESDSNKVKKSKKNKKHKLGTKYSVIDERLEIKFSDELSDSLRKLKPEGNLLYDTVRKLQSSGKVETRVPVRKGRKYKQKITEKWTHKDFK | not soluble |
| MAPTPKFGPKKIQNVSAVSCSVKKYQASTSSPVPILNVQERVELRKLEQMLPVSPKNCDPADVVLRAASYIDQLVATVQARVKNGTLPMGALSSLPPQYSKPIKSSRRTVSSKKSRRSMEKKR | not soluble |
| MAPTRAVIPDDFELPVDAFDIPICYDGDLSGVVIPEGLVRDRVRRLAKDIHAEIGNKPIALLCVLKGSYKFFTALVEELTNARSSCPEPMTVDFIRVKSYEDQMSTGQIQIMGLSNLDELKGKSVLVVDDISDTGRTLAKLLSTLHETGVEKTWTALLLSKRVKRVVDVPEDFVAFEIPDKFIVGYGLDYNQKFRDLGHICVMSPAGIEKYKSE | not soluble |
| MAPVLENRRARHDYEILETYEAGIALKGTEVKSLRAGKVDFTGSFARFEDGELYLENLYIAPYEKGSYANVDPRRKRKLLLHKHELRRLLGKVEQKGLTLVPLKIYFNERGYAKVLLGLARGKKAYEKRREDKKEAVRRALEEL | soluble |
| MAPWIGGKRNLARRICAILDRSPCLTYAEPFVGMAGIFLRRSSRPRAEVINDRGRDVANLFRILQRHYPQFLDTLRFQLTTRAEFERLGATDPDTLTDLERAARFLYLQRTAFGGKVSGRNFGVSSHRPGRFNLTTLEPMLEDLHSRLAGVIVECLDWADFLARYDRPETLFYLDPPYWGSETDYGRGLFQREDFGLMAERLAKLQGRFLLSINDVPQIRAIFGRFRITEVTTTYSISGSAKGNGTARPELLVSNWDIGEEG | not soluble |
| MAQHVKKPEWLKIRLGGNEKFTETKSIVEGHCLHTICTSGKCPNMGECWSRGTATFMIGGDICTRACRFCNTLTGRPKPLNEAEPTHVALSIKLMGLNHAVVTSVDRDDLPDYGAAHWVKTIQEIRRINSGVTLEVLIPDFKGRMDLVDMIIEASPDVISHNLETVRRLTPSVRSVATYDTSLAVLRHIAQSGKMPAKTGMMLGLGETEEEILELMDDALAAGVSVITIGQYLQPSRKNLPVVEYITPEQFEHLRLVGIEKGFRTIESAPLVRSSYHAERHL | not soluble |
| MAQKPLRLLACGDVEGKFDILFNRVQAIQKKSGNFDLLLCVGNFFGSTQDAEWEEYKTGIKKVPIQTYVLGANNQETVKYFQDADGCELAENITYLGRKGIFTGSSGLQIVYLSGTESLNEPVPGYSFSPKDVSSLRMMLCTTSQFKGVDILLTSPWPKCVGNFGNSSGEVDTKKCGSALVSSLATGLKPRYHFAALEKTYYERLPYRNHIILQENAQHATRFIALANVGNPEKKKYLYAFSIVPMKLMDAAELVKQPPDVTENPYRKSGQEASIGKQILAPVEESACQFFFDLNEKQGRKRSSTGRDSKSSPHPKQPRKPPQPPGPCWFCLASPEVEKHLVVNIGTHCYLALAKGGLSDDHVLILPIGHYQSVVELSAEVVEEVEKYKATLRRFFKSRGKWCVVFERNYKSHHLQLQVIPVPISCSTTDDIKDAFITQAQEQQIELLEIPEHSDIKQIAQPGAAYFYVELDTGEKLFHRIKKNFPLQFGREVLASEAILNVPDKSDWRQCQISKEDEETLARRFRKDFEPYDFTLDD | soluble |
| MAQMTMIQAITDALRVEMKNDPNVLVFGEDVGVNGGVFRATEGLQAEFGEDRVMDTPLAESGIGGLAVGLALEGFRPVPEIQFFGFVYEVMDSISGQLARMRYRSGGRWTAPVTVRSPFGGGVHTPELHADSLEGLVAQQPGLKVVIPSTPYDAKGLLISAIRDNDPVIYLEHMKLYRSFRQDVPEGEYTIDLGKADIKREGTDVSVIAYGAMVHAALKAAEELEKEGISLEVVDLRTVQPLDIETIIASVEKTGRVVVVQEAQKQAGIAANVVAEINDRAILNLEAPVVRVAAADTVFPFSQAESVWLPNHKDIVEAVNKVMNF | not soluble |
| MAQVSTTAGGAVGVNRSQSMLLSSQEVEQMSAKSYAGELQKARAAGRLNTDPALTARVRRVSQRLIAQTPSFRPDARNWRWEVNVLTTDDMNAYAMAGGKIMVYTGLVKQLKLSDAELAAVIGHEISHALREHTRENMSQAYAQQMGLGLVGALVGLNDSQLKLASLVGDVTLSKPHSRTMESEADIMGLELMARAGYDPNAAVNVWQKMQAAGGGGGMEFLSTHPSGPTRIRDLQAHIPQVWPLYQAAPKKGLEHHHHHH | not soluble |
